Data reported in patent US20210230272A1.
Where two headings read alike, the source gives them in different places.

Legend:
human CLDN18.2 (human) [1] = target: human CLDN18.2 (human) (UniProt P56856); assay: flow cytometry, CF633, 1 µg/ml
human CLDN18.2 (human) [2] = target: human CLDN18.2 (human) (UniProt P56856); assay: cell ELISA, hCLDN18.2+ cells
human CLDN18.2 (human) [3] = target: human CLDN18.2 (human) (UniProt P56856); assay: flow cytometry, CF488 labeled antibody 1 µg/ml, hCLDN18.2+ cells
human CLDN18.2 (human) [4] = target: human CLDN18.2 (human) (UniProt P56856); assay: flow cytometry, CF633 labeled antibody 1 µg/ml, hCLDN18.2+ cells
human CLDN18.2 (human) [5] = target: human CLDN18.2 (human) (UniProt P56856); assay: flow cytometry, CF488 labeled antibody 10 µg/ml, hCLDN18.2+ cells
human CLDN18.2 (human) [6] = target: human CLDN18.2 (human) (UniProt P56856); assay: flow cytometry, CF633 labeled antibody 10 µg/ml, hCLDN18.2+ cells
mice CLDN18.2 (mice) = mice CLDN18.2 (mice) (UniProt P56857); assay: cell ELISA, mCLDN18.2+ cells
human CLDN18.2 (human) [7] = target: human CLDN18.2 (human) (UniProt P56856); assay: cell-based or functional assay
human CLDN18.2 (human) [8] = target: human CLDN18.2 (human) (UniProt P56856); assay: flow cytometry, CF633, 10 µg/ml
human CLDN18.2 (human) [9] = target: human CLDN18.2 (human) (UniProt P56856); assay: flow cytometry, CF488, 10 µg/ml
human CLDN18.2 (human) [10] = target: human CLDN18.2 (human) (UniProt P56856); assay: KinExA, antibody titrated with hCLDN18.2+ cells
human CLDN18.2 (human) [11] = target: human CLDN18.2 (human) (UniProt P56856); assay: cell ELISA, hCLDN18.2+ cells; remark: listed apart in the source
[12] = target: human CLDN18.2 (human), P56856; assay: cell-based or functional assay

B1: Ref (control anti-human CLDN18.2 antibody) (antibody, INN chains, looked up, V domains shown)
VH: QVQLQQPGAELVRPGASVKLSCKASGYTFTSYWINWVKQRPGQGLEWIGNIYPSDSYTNYNQKFKDKATLTVDKSSSTAYMQLSSPTSEDSAVYYCTRSWRGNSFDYWGQGTTLTVSS
VL: DIVMTQSPSSLTVTAGEKVTMSCKSSQSLLNSGNQKNYLTWYQQKPGQPPKLLIYWASTRESGVPDRFTGSGSGTDFTLTISSVQAEDLAVYYCQNDYSYPFTFGSGTKLEIKR
binding value, ratio to the background (human CLDN18.2 (human) [1]): 2.7
EC50 (human CLDN18.2 (human) [2]): 345 pM
Emax (human CLDN18.2 (human) [2]): 0.98
Binding value (FACS fluorescence intensity) (human CLDN18.2 (human) [3]): 1940
Binding value (FACS fluorescence intensity) (human CLDN18.2 (human) [4]): 62.5
Binding value (FACS fluorescence intensity) (human CLDN18.2 (human) [5]): 17900
Binding value (FACS fluorescence intensity) (human CLDN18.2 (human) [6]): 198
EC50 (mice CLDN18.2 (mice)): 1040 pM
Emax (mice CLDN18.2 (mice)): 1
ADCC activity, EC50 (human CLDN18.2 (human) [7]): 1.39 µg/mL
CDC activity, EC50 (human CLDN18.2 (human) [7]): 2.31 µg/mL
inducing the apoptosis of tumor cells at 10 µg/ml (LDH release) (human CLDN18.2 (human) [7]): 15.3%
inducing the apoptosis of tumor cells at 30 µg/ml (LDH release) (human CLDN18.2 (human) [7]): 19.6%
inhibition rate % of proliferation, 1 µg/ml (CCK-8) (human CLDN18.2 (human) [7]): 2.34%
inhibition rate % of proliferation, 10 µg/ml (CCK-8) (human CLDN18.2 (human) [7]): 2.94%
inhibition rate % of proliferation, 30 µg/ml (CCK-8) (human CLDN18.2 (human) [7]): 3.9%
binding value, times of the background (human CLDN18.2 (human) [8]): 8.5 times
binding value, times higher than the background (human CLDN18.2 (human) [9]): 4 times
Kd (human CLDN18.2 (human) [10]): 144 pM
EC50 (human CLDN18.2 (human) [11]): 249 pM
Emax (human CLDN18.2 (human) [11]): 1.41

B2: Ab51 (antibody, IgG1, V domains shown)
VL: DIVMTQSPDSLAVSLGERATINCKSSQSLLNTGNNKNYLAWYQQKPGQPPKLLIYWASTRESGVPDRFSGSGSGTDFTLTISSLQAEDVAVYYCQNDYFYPFTFGQGTKLEIK
VH: QVQLVQSGAEVKKPGSSVKVSCKASGYAFSNYLIEWVRQAPGQGLEWMGLINPGSGGTNYNEKFKGRVTITADESTSTAYMELSSLRSEDTAVYYCARVYYGNTFAYWGQGTLVTVSS
CDC activity, EC50 [12]: 2.12 µg/mL

B3: CAR1a (CAR with Ab10 scFv) (protein)
chain: DIVMTQSPDSLAVSLGERATISCKSSQSLLNSGNQKNYLTWYQQKPGQPPKLLIYWASTRESGVPDRFSGSGSGTDFTLTISSLQAEDVAVYYCQNDYFYPFTFGQGTKLEIKGGGGSGGGGSGGGGSQVQLVQSGAEVKKPGSSVKVSCKASGYAFSNYLIEWVKQAPGQGLEWIGLINPGSGGTNYNEKFKGKATITADKSTSTAYMELSSLRSEDTAVYYCARVYYGNSFAYWGQGTLVTVSSTTTPAPRPPTPAPTIASQPLSLRPEACRPAAGGAVHTRGLDFACDIYIWAPLAGTCGVLLLSLVITLYCKRGRKKLLYIFKQPFMRPVQTTQEEDGCSCRFPEEEEGGCELRVKFSRSADAPAYKQGQNQLYNELNLGRREEYDVLDKRRGRDPEMGGKPRRKNPQEGLYNELQKDKMAEAYSEIGMKGERRRGKGHDGLYQGLSTATKDTYDALHMQALPPR
specific killing rate of target cells, %, CART1a, 1:1 [12]: 19.1%
specific killing rate of target cells, %, CART1a, 3:1 [12]: 18.3%
specific killing rate of target cells, %, CART1a, 10:1 [12]: 32.2%
specific killing rate of target cells, %, CART1a, 20:1 [12]: 34.8%
specific killing rate of target cells, %, CART3a, 1:1 [12]: 3.9%
specific killing rate of target cells, %, CART3a, 3:1 [12]: 3.1%
specific killing rate of target cells, %, CART3a, 10:1 [12]: 21.8%
specific killing rate of target cells, %, CART3a, 20:1 [12]: 24.3%
specific killing rate of target cells, %, CART3ab10, 1:1 [12]: 0%
specific killing rate of target cells, %, CART3ab10, 3:1 [12]: 0%
specific killing rate of target cells, %, CART3ab10, 10:1 [12]: 12.2%
specific killing rate of target cells, %, CART3ab10, 20:1 [12]: 21.2%
specific killing rate of target cells, %, CART4a, 1:1 [12]: 0%
specific killing rate of target cells, %, CART4a, 3:1 [12]: 1.2%
specific killing rate of target cells, %, CART4a, 10:1 [12]: 8.8%
specific killing rate of target cells, %, CART4a, 20:1 [12]: 19.8%

B4: Ab28 (antibody, V domains shown)
VH: QVQLVQSGAEVKKPGSSVKVSCKASGYAFSNYLIEWVRQAPGQGLEWMGLINPGSGGTNYNEKFKGKVTITADKSTSTAYMELSSLRSEDTAVYYCARVYYGNSFAYWGQGTLVTVSS
VL: DIVMTQSPDSLAVSLGERATINCKSSQSLLNTGNNKNYLAWYQQKPGQPPKLLIYWASTRESGVPDRFSGSGSGTDFTLTISSLQAEDVAVYYCQNDYFYPFTFGQGTKLEIK
EC50 (human CLDN18.2 (human) [11]): 154 pM
Emax (human CLDN18.2 (human) [11]): 1.56

B5: Ab30 (antibody, V domains shown)
VH: QVQLVQSGAEVKKPGSSVKVSCKASGYAFSNYLIEWVRQAPGQGLEWMGLINPGSGGTNYNEKFKGKVTITADKSTSTAYMELSSLRSEDTAVYYCARVYYGNTFAYWGQGTLVTVSS
VL: DIVMTQSPDSLAVSLGERATISCKSSQSLLNSGNQKNYLTWYQQKPGQPPKLLIYWASTRESGVPDRFSGSGSGTDFTLTISSLQAEDVAVYYCQNDYFYPFTFGQGTKLEIK
EC50 (human CLDN18.2 (human) [11]): 11400 pM
Emax (human CLDN18.2 (human) [11]): 0.67

B6: Ab32 (antibody, V domains shown)
VH: QVQLVQSGAEVKKPGSSVKVSCKASGYAFSNYLIEWVRQAPGQGLEWMGLINPGSGGTNYNEKFKGKVTITADKSTSTAYMELSSLRSEDTAVYYCARVYYGNTFAYWGQGTLVTVSS
VL: DIVMTQSPDSLAVSLGERATINCKSSQSLLNSGNNKNYLAWYQQKPGQPPKLLIYWASTRESGVPDRFSGSGSGTDFTLTISSLQAEDVAVYYCQNDYFYPFTFGQGTKLEIK
EC50 (human CLDN18.2 (human) [11]): 197 pM
Emax (human CLDN18.2 (human) [11]): 1.41

B7: Ab34 (antibody, V domains shown)
VH: QVQLVQSGAEVKKPGSSVKVSCKASGYAFSNYLIEWVRQAPGQGLEWMGLINPGSGGTNYNEKFKGKVTITADKSTSTAYMELSSLRSEDTAVYYCARVYYGNTFAYWGQGTLVTVSS
VL: DIVMTQSPDSLAVSLGERATISCKSSQSLLNSGNNKNYLAWYQQKPGQPPKLLIYWASTRESGVPDRFSGSGSGTDFTLTISSLQAEDVAVYYCQNDYFYPFTFGQGTKLEIK
EC50 (human CLDN18.2 (human) [11]): 151 pM
Emax (human CLDN18.2 (human) [11]): 1.42

B8: Ab51 (antibody, IgG1, V domains shown)
VH: QVQLVQSGAEVKKPGSSVKVSCKASGYAFSNYLIEWVRQAPGQGLEWMGLINPGSGGTNYNEKFKGRVTITADESTSTAYMELSSLRSEDTAVYYCARVYYGNTFAYWGQGTLVTVSS
VL: DIVMTQSPDSLAVSLGERATINCKSSQSLLNTGNNKNYLAWYQQKPGQPPKLLIYWASTRESGVPDRFSGSGSGTDFTLTISSLQAEDVAVYYCQNDYFYPFTFGQGTKLEIK
EC50 (mice CLDN18.2 (mice)): 474 pM
Emax (mice CLDN18.2 (mice)): 1.91

B9: Ab21 (antibody, V domains shown)
VH: QVQLVQSGAEVKKPGSSVKVSCKASGYAFSNYLIEWVRQAPGQGLEWMGLINPGSGGTNYNEKFKGKVTITADKSTSTAYMELSSLRSEDTAVYYCARVYYGTSFAYWGQGTLVTVSS
VL: DIVMTQSPDSLAVSLGERATINCKSSQSLLTSGNNKNYLAWYQQKPGQPPKLLIYWASTRESGVPDRFSGSGSGTDFTLTISSLQAEDVAVYYCQNDYFYPFTFGQGTKLEIK
EC50 (human CLDN18.2 (human) [11]): > 16000 pM
Emax (human CLDN18.2 (human) [11]): 0.145

B10: Ab22 (antibody, V domains shown)
VH: QVQLVQSGAEVKKPGSSVKVSCKASGYAFSNYLIEWVRQAPGQGLEWMGLINPGSGGTNYNEKFKGKVTITADKSTSTAYMELSSLRSEDTAVYYCARVYYGNTFAYWGQGTLVTVSS
VL: DIVMTQSPDSLAVSLGERATINCKSSQSLLTSGNNKNYLAWYQQKPGQPPKLLIYWASTRESGVPDRFSGSGSGTDFTLTISSLQAEDVAVYYCQNDYFYPFTFGQGTKLEIK
EC50 (human CLDN18.2 (human) [11]): 1370 pM
Emax (human CLDN18.2 (human) [11]): 0.827

B11: Ab23 (antibody, V domains shown)
VH: QVQLVQSGAEVKKPGSSVKVSCKASGYAFSNYLIEWVRQAPGQGLEWMGLINPGSGGTNYNEKFKGKVTITADKSTSTAYMELSSLRSEDTAVYYCARVYYGTSFAYWGQGTLVTVSS
VL: DIVMTQSPDSLAVSLGERATINCKSSQSLLNTGNNKNYLAWYQQKPGQPPKLLIYWASTRESGVPDRFSGSGSGTDFTLTISSLQAEDVAVYYCQNDYFYPFTFGQGTKLEIK
EC50 (human CLDN18.2 (human) [11]): > 40000 pM
Emax (human CLDN18.2 (human) [11]): 0.147
